US20220089663A1, “PROTEINS AND FLUOROPHORE-CONTAINING COMPOUNDS SELECTIVE FOR NaV1.7” (MEMORIAL SLOAN KETTERING CANCER CENTER, priority 2019, published 2022)
Where two headings read alike, the source gives them in different places.

How the values were obtained:
Assay in all cases: cell-based or functional assay
hNav1.7 (human), Q15858 [1] = biological target: hNav1.7 (human), Q15858
hNav1.6 (human), Q9UQD0 [2] = biological target: hNav1.6 (human), Q9UQD0
Nav1.8 = biological target: Nav1.8
hNav1.2 (human), Q99250 = biological target: hNav1.2 (human), Q99250
hNav1.1 (human), P35498 = biological target: hNav1.1 (human), P35498
Nav1.9 = biological target: Nav1.9
Cav1.1 = biological target: Cav1.1
Cav1.3 = biological target: Cav1.3
hNav1.5 (human), Q14524 = biological target: hNav1.5 (human), Q14524
hNav1.3 (human), Q9NY46 = biological target: hNav1.3 (human), Q9NY46
hERG, Q12809 = biological target: T1, hERG, Q12809
T1 chain: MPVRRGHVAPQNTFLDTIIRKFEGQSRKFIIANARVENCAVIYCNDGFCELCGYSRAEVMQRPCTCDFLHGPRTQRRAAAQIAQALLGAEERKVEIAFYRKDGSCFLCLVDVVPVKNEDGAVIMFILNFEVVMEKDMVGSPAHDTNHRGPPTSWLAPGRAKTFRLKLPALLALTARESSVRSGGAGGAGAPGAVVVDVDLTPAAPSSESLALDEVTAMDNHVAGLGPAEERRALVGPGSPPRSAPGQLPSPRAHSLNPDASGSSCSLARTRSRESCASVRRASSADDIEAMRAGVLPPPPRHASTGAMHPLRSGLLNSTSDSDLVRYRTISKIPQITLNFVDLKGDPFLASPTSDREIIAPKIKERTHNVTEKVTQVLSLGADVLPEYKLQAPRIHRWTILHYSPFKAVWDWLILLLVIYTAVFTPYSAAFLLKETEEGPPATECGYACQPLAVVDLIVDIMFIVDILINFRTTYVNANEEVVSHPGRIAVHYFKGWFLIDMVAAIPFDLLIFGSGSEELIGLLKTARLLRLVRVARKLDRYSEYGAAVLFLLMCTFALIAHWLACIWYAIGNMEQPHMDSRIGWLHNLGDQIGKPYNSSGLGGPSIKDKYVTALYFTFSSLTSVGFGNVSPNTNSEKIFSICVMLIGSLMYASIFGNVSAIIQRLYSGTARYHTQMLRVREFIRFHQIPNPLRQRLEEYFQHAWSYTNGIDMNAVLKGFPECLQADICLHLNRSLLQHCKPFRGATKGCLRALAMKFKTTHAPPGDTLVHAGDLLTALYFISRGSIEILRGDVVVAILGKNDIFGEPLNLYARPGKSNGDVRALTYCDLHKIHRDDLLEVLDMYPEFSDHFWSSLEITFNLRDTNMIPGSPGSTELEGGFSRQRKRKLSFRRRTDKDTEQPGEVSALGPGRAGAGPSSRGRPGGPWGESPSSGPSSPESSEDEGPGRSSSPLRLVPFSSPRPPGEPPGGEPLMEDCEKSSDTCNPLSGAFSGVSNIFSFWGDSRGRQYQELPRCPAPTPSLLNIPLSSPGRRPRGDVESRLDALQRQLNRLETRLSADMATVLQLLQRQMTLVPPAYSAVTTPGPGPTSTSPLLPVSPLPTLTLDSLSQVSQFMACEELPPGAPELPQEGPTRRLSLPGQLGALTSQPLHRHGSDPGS

hNav1.7 (human), Q15858 [3] = biological target: hNav1.7 (human), Q15858; remark: listed apart in the source
Kv2.1 = biological target: Kv2.1
hNav1.4 (human), P35499 = biological target: hNav1.4 (human), P35499
hNav1.6 (human), Q9UQD0 [4] = biological target: hNav1.6 (human), Q9UQD0; remark: listed apart in the source
Cav2.2 = biological target: Cav2.2

In the case of GNDCLGFWSACNPKNDKCCANLVCSSKHKWCKGKL (modifications not checked) [Hs1a], the IC50, automated patch clamp (hNav1.7 (human), Q15858 [1]) is reported as 26.9 nM, the IC50, automated patch clamp (hNav1.6 (human), Q9UQD0 [2]) is reported as 19.2 nM and the IC50 (Nav1.8) is reported as over 3000 nM. It also gave an IC50, automated patch clamp (hNav1.2 (human), Q99250) of 82.2 nM, an IC50, automated patch clamp (hNav1.1 (human), P35498) of 19.4 nM and an IC50 (Nav1.9) of over 3000 nM. It also gave an IC50 (Cav1.1) of over 3000 nM, an IC50 (Cav1.3) of over 3000 nM and an IC50, automated patch clamp (hNav1.5 (human), Q14524) of over 3000 nM. For the same binder, the IC50, automated patch clamp (hNav1.3 (human), Q9NY46) was 107 nM, the IC50 (hERG, Q12809) was over 3000 nM and the IC50, automated patch clamp (hNav1.7 (human), Q15858 [3]) was 45.7 nM. For the same binder, the IC50 (Kv2.1) was over 3000 nM, the IC50, automated patch clamp (hNav1.4 (human), P35499) was over 3000 nM and the IC50, automated patch clamp (hNav1.6 (human), Q9UQD0 [4]) was 168 nM. It also gave an IC50 (Cav2.2) of over 3000 nM.

In the case of GNDCLGFWSACNPKNDKCCANLVCSSKHKWCKGKL (modifications not checked) [Hs1a-FL], the IC50, patch clamp on HEK293 cells (hNav1.2 (human), Q99250) is reported as 81.2 nM, the IC50, patch clamp on HEK293 cells (hNav1.1 (human), P35498) is reported as 19.4 nM and the IC50, patch clamp on HEK293 cells (hNav1.5 (human), Q14524) is reported as over 3000 nM. For the same binder, the IC50, patch clamp on HEK293 cells (hNav1.3 (human), Q9NY46) was 107 nM, the IC50, patch clamp on HEK293 cells (hNav1.7 (human), Q15858 [3]) was 26.9 nM and the IC50, patch clamp on HEK293 cells (hNav1.4 (human), P35499) was over 3000 nM. The IC50, patch clamp on HEK293 cells (hNav1.6 (human), Q9UQD0 [4]) was 19.2 nM.

YCQKFLWTCDSERPCCEGLVCRLWCKIN (modifications not checked) [Hsp1a-FL] was tested, and the IC50, automated whole-cell patch clamp (hNav1.7 (human), Q15858 [3]) was 62 nM.
